Article PMC3099712

How the values were obtained:
[1] = target: GFP-tagged human IGFLR1 on HEK293T cells (human); test: radioligand binding
[2] = target: GFP-tagged mouse IGFLR1 on HEK293T cells (mouse); test: radioligand binding

FLAG-IGFL1 (human insulin growth factor-like family member 1), sequence (Q6UW32 24-110): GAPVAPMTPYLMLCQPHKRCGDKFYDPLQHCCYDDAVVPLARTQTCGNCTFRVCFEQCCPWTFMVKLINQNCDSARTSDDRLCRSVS
FLAG-mIGFL (mouse insulin growth factor-like protein), sequence (Q6B9Z0 24-140): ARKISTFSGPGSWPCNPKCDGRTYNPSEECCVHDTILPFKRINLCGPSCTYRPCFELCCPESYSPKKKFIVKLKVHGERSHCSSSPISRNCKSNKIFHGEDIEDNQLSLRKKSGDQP

| Kd [1] [nM] | Kd [2] [nM] | Substance |
| --- | --- | --- |
| 0.31 | – | FLAG-IGFL1 (human insulin growth factor-like family member 1) (from UniProt Q6UW32 24-110) (ligand) |
| – | 0.73 | FLAG-mIGFL (mouse insulin growth factor-like protein) (from UniProt Q6B9Z0 24-140) (ligand) |
